According to US20180273635A1 (Zymeworks, published 2018):
One block for each binder: values may come before it.

Tests used:
Recombinant human HER2 [1] = molecular target: T1, Recombinant human HER2 (human, UniProt P04626 23-652); test: SPR at 25 C, affinity against WT v10013
T1 construct: extracellular domain; also called HER2 ECD
Experimental: (§1) The affinity towards HER2 ECD of the samples was measured by SPR on a Biacore T200 as follows. Between 2000 and 4000 RU of anti-human Fc injected at concentration between 5 and 10 μg/ml was immobilized on a CM5 chip using standard amine coupling. Antigen-binding constructs were captured on the anti-human Fc (injected at concentration at 0.51 microg/mL in PBST, 1 min at 10 microl/min) at response levels ranging from 120-270 RU. […] HER2 dilutions were analyzed in duplicates. Sensograms were fit globally to a 1: 1 Langmuir binding model, using the software provided with the Biacore T200. All experiments were conducted at 25° C.

Recombinant human HER2 [2] = molecular target: T1, Recombinant human HER2; test: SPR at 25 C, affinity against v10014 (itself, reference)
Experimental: as §1

[3] = molecular target: T2, HER2 expressed on the surface of cells (human, UniProt P04626 23-1255); test: cell-based or functional assay
[4] = molecular target: T2, HER2 expressed on the surface of cells; test: cell-based or functional assay; remark: listed apart in the source
[5] = molecular target: T2, HER2 expressed on the surface of cells; test: flow cytometry on BT474 cells, n=1; B50 = concentration at 50% of Bmax
Experimental: (§2) Binding of the test antigen-binding constructs to the surface of HER2+ cells was determined by flow cytometry. Cells were washed with PBS and resuspended in DMEM at 1×10⁵ cells/100 μl. 100 μl cell suspension was added into each microcentrifuge tube, followed by 10 μl/tube of the antigen-binding constructs. The tubes were incubated for 2 hr at 4° C. on a rotator. The microcentrifuge tubes were centrifuged for 2 min 2000 RPM at room temperature and the cell pellets washed with 500 μl media. Each cell pellet was resuspended in 100 μl of fluorochrome-labelled secondary antibody diluted in media to 2 μg/sample. The samples were then incubated for lhr at 4° C. on a rotator. After incubation, the cells were centrifuged for 2 min at 2000 rpm and washed in media. The cells were resuspended in 500 μl media, filtered, transferred to a tube containing 5 μl propidium iodide (PI) and analyzed on a BD LSR II flow cytometer according to the manufacturer's instructions. The B50 of the tested antigen-binding constructs was assessed by FACS with data analysis and curve fitting performed in GraphPad Prism. The experiment was carried out once (n=1) in SKBr3 cells, and twice (n=2) in SKOV3, MCF7, and BT-474 cells.
(§3) The experiment was performed once (n=1) in each cell line.

[6] = molecular target: T2, HER2 expressed on the surface of cells; test: flow cytometry on SKBR3 cells, n=1; B50 = concentration at 50% of Bmax
Experimental: as §2, §3

[7] = molecular target: T2, HER2 expressed on the surface of cells; test: cell-based or functional assay; remark: listed apart in the source
[8] = molecular target: T2, HER2 expressed on the surface of cells; test: flow cytometry on BT474 cells, n=1
Experimental: as §2, §3

[9] = molecular target: T2, HER2 expressed on the surface of cells; test: cell-based or functional assay; remark: listed apart in the source
[10] = molecular target: T2, HER2 expressed on the surface of cells; test: flow cytometry on SKBR3 cells, n=1
Experimental: as §2, §3

[11] = molecular target: T2, HER2 expressed on the surface of cells; test: cell-based or functional assay; remark: listed apart in the source
[12] = molecular target: T2, HER2 expressed on the surface of cells; test: flow cytometry on MCF7 cells (low HER2), n=1
Experimental: as §2, §3

[13] = molecular target: T2, HER2 expressed on the surface of cells; test: cell-based or functional assay; remark: listed apart in the source
[14] = molecular target: T2, HER2 expressed on the surface of cells; test: flow cytometry on MCF7 cells (low HER2), n=1; B50 = concentration at 50% of Bmax
Experimental: as §2, §3

[15] = molecular target: T2, HER2 expressed on the surface of cells; test: cell-based or functional assay; remark: listed apart in the source
Recombinant human HER2 [16] = molecular target: T3, Recombinant human HER2 (human, UniProt P04626 23-652); test: SPR, FSA captured on anti-human Fc, HER2 flowed, 25 C, after protein A and SEC
T3 construct: extracellular domain; analyte of the SPR assays; also called HER2 ECD; ECD2 of HER2

Fold wrt WT (Recombinant human HER2 [1]): 7 fold
Fold wrt v10014 (Recombinant human HER2 [2]): 1 fold
B1: Variant 10014 (pertuzumab T30A / Y96A, one-armed format) (antibody)
heavy: EVQLVESGGGLVQPGGSLRLSCAASGFTFADYTMDWVRQAPGKGLEWVADVNPNSGGSIYNQRFKGRFTLSVDRSKNTLYLQMNSLRAEDTAVYYCARNLGPSFYFDYWGQGTLVTVSSASTKGPSVFPLAPSSKSTSGGTAALGCLVKDYFPEPVTVSWNSGALTSGVHTFPAVLQSSGLYSLSSVVTVPSSSLGTQTYICNVNHKPSNTKVDKKVEPKSCDKTHTCPPCPAPELLGGPSVFLFPPKPKDTLMISRTPEVTCVVVDVSHEDPEVKFNWYVDGVEVHNAKTKPREEQYNSTYRVVSVLTVLHQDWLNGKEYKCKVSNKALPAPIEKTISKAKGQPREPQVYVYPPSRDELTKNQVSLTCLVKGFYPSDIAVEWESNGQPENNYKTTPPVLDSDGSFALVSKLTVDKSRWQQGNVFSCSVMHEALHNHYTQKSLSLSPG
light: not shown
Fc: not shown
notes: Monovalent one-armed (OA) antibody; also called v10014

growth inhibition IC50 (potency), BT474 cells + EGF [3]: 1 nM
growth inhibition span ratio to WT, BT474 cells + EGF [3]: 1.5 fold
growth inhibition IC50, BT474 cells + EGF, 6 days [4]: 0.3 nM
growth inhibition IC50, BT474 cells, 6 days [4]: 0.1 nM
B50 [5]: 3.1 nM
B50 [6]: 6.6 nM
Bmax [8]: 23000 MFI
growth inhibition IC50 (potency), SKBR3 cells [9]: 0.12 nM
growth inhibition span ratio to WT, SKBR3 cells [9]: 1.3 fold
Bmax [10]: 27000 MFI
growth inhibition IC50 (potency), SKBR3 cells, 5 days [11]: 0.1 nM
Bmax [12]: 570 MFI
growth inhibition IC50 (potency), NCI-N87 cells, 5 days [13]: 1.8 nM
increase in efficacy with respect to the WT, NCI-N87 cells [13]: 1.9 fold
increase in potency with respect to the WT, NCI-N87 cells [13]: 5.1 fold
B50 [14]: 1.2 nM
growth inhibition IC50 (potency), BT474 cells [15]: 0.31 nM
growth inhibition span ratio to WT, BT474 cells [15]: 2.5 fold
B2: Variant 12471 (antibody, human IgG1, kappa, name in Kabat numbering, V domains shown)
VH: EVQLVESGGGLVQPGGSLRLSCAASGFTFADYTMDWVRQAPGKGLEWVGDVNPNSGGSIYNQRFKGRFTFSVDRSKNTLYLQMNSLRAEDTAVYYCARNLGPSFYFDYWGQGTLVTVSS
VL: DIQMTQSPSSLSASVGDRVTITCKASQDVSIGVAWYQQKPGKAPKLLIYSASYRYTGVPSRFSGSGSGTDFTLTISSLQPEDFATYYCQQYYIYPATFGQGTKVEIKR
notes: Kabat numbering; also called v12471; FSA version of v9996
growth inhibition span (percentage of cells killed), BT474 cells + EGF [3]: 27%
growth inhibition span (percentage of cells killed), MDA-MB-175 cells [7]: 75%
growth inhibition span (percentage of cells killed), SKBR3 cells [9]: 22%
growth inhibition span (percentage of cells killed), NCI-N87 cells [13]: 32%
growth inhibition span (percentage of cells killed), BT474 cells [15]: 26%

Kd (Recombinant human HER2 [16]): 1.8 nM
B3: variant 12471 (antibody, human IgG1, kappa, name in Kabat numbering, V domains shown)
VH: EVQLVESGGGLVQPGGSLRLSCAASGFTFADYTMDWVRQAPGKGLEWVGDVNPNSGGSIYNQRFKGRFTFSVDRSKNTLYLQMNSLRAEDTAVYYCARNLGPSFYFDYWGQGTLVTVSS
VL: DIQMTQSPSSLSASVGDRVTITCKASQDVSIGVAWYQQKPGKAPKLLIYSASYRYTGVPSRFSGSGSGTDFTLTISSLQPEDFATYYCQQYYIYPATFGQGTKVEIKR
notes: FSA, bivalent, wild type Fc; also called v12471; FSA version of v9996
